Paper PMC7394560, “Post-replicative pairing of sister ter regions in Escherichia coli involves multiple activities of MatP” (Nature Communications, 2020)

Columns and labels:
[1] = molecular target: T1, MatP (Escherichia coli, UniProt P0A8N0 1-150); test: pull-down; settings: EMSA: 10 mM Tris pH 7.5, 125 mM NaCl, 2.5 mM MgCl2, 0.5 mM DTT, 5% glycerol, 1 uM DNA, 0.25 ug poly(dI-dC), 30 C; pull-down: 20 mM Tris pH 7.5, 1 mM MgCl2 …
T1 sequence: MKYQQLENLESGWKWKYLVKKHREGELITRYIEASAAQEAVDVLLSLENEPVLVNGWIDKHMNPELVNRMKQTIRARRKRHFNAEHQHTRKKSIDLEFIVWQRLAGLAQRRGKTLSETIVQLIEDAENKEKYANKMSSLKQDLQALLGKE

[2] = molecular target: T2, MatPΔ20 untagged (Escherichia coli, UniProt P0A8N0 1-130); test: EMSA; equivalent efficiency to MatP; EMSA: 10 mM Tris pH 7.5, 125 mM NaCl, 2.5 mM MgCl2, 0.5 mM DTT, 5% glycerol, 1 uM DNA, 0.25 ug poly(dI-dC), 30 C; pull-down: 20 mM Tris pH 7.5, 1 mM MgCl2, 150; settings: protein: recombinant; tags: none; chain copies: 2; label: 5' Cy3 on strand 1; blunt
T2 sequence: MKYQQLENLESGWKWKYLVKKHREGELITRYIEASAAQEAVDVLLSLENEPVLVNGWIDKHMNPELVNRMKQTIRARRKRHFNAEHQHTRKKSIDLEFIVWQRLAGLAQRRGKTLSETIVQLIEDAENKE

[3] = molecular target: T1, MatP; test: EMSA; 3 uM MatP, 2.5 mM Mg2+, poly(dI-dC); proposed tetramer; titration 0.2-2 uM in Suppl. Fig. 7a,b; EMSA: 10 mM Tris pH 7.5, 125 mM NaCl, 2.5 mM MgCl2, 0.5 mM DTT, 5% glycerol, 1 uM DNA, 0.25 ug poly(dI-dC), 30 C; pull-down: 20 mM Tris pH 7.5, 1 mM MgCl2, 150; settings: protein: recombinant; MW 21 kDa); chain copies: 4; label: 5' Cy3 on strand 1; blunt
[4] = molecular target: T3, MatPΔ20-His (Escherichia coli, UniProt P0A8N0 1-130); test: EMSA; equivalent efficiency to MatP; faster-migrating complex; EMSA: 10 mM Tris pH 7.5, 125 mM NaCl, 2.5 mM MgCl2, 0.5 mM DTT, 5% glycerol, 1 uM DNA, 0.25 ug poly(dI-dC), 30 C; pull-down: 20 mM Tris pH 7.5, 1 mM MgCl2, 150; settings: protein: recombinant; tags: His tag (MW 32 kDa with tag); chain copies: 2; label: 5' Cy3 on strand 1; blunt
T3 sequence: T2 sequence

[5] = molecular target: the molecule itself; test: native gel or EMSA; 41 bp matS DNA (1 µM) with 3 µM protein; 10 mM Tris pH 7.5, 125 mM NaCl, 2.5 mM MgCl2, 0.5 mM DTT, 5% glycerol, poly(dI-dC); 30 °C for 30 min; 5% native TGE-PAGE; oligomer size on DNA inferred from the mobility of the complexes against theoretical masses

Molecule: DNAf(2matS)
- binding signal (% DNAf recovered) [1]: 63

B1: matS41 (dsDNA)
DNA 1: AAGTACGGTAAAAGGTGACAGTGTCACTTTCATTGTTGGTA
DNA 2: TACCAACAATGAAAGTGACACTGTCACCTTTTACCGTACTT
- binding result [2]: binds
- binding result [3]: binds
- binding result [4]: binds

B2: his-tagged MatPΔ20 (domain or fragment, E. coli, UniProt P0A8N0 1-130, looked up)
chain: T2 sequence
notes: MatP of Escherichia coli lacking the last 20 C-terminal residues; theoretical mass of the tagged protein printed as 32 kDa; The printed 32 kDa ('twice bigger' than MatP) is far more than a His tag adds to about 130 residues; also called MatPΔ20-tag; source: E. coli BL21DE3, purified (HisTrap column)
- stoichiometry N [5]: 2

B3: untagged MatPΔ20 (domain or fragment, E. coli, UniProt P0A8N0 1-130, looked up)
chain: T2 sequence
notes: MatP of Escherichia coli lacking the last 20 C-terminal residues; theoretical mass printed as 18 kDa; source: E. coli BL21DE3 (pET15b containing matPΔ20), purified (heparin column)
- stoichiometry N [5]: 2

B4: MatP (natural protein, E. coli, UniProt P0A8N0 1-150, looked up)
chain: T1 sequence
notes: MatP, macrodomain Ter protein of Escherichia coli; theoretical mass printed as 21 kDa; also called MatP wt; source: E. coli BL21DE3 (pET15b containing matP), purified (heparin column)
- stoichiometry N [5]: 4
